According to patent publication US20240228562A1 (Pieris, published 2024):

T1: CTGF expressed by TGF-β1-stimulated normal human lung fibroblasts (NHLFs) (human, UniProt P29279 27-349)
T1 construct: whole, on cells; Cells grown under conditions that facilitate pseudo-3D extracellular matrix deposition; also called CTGF-expressing NHLFs
T1 sequence (looked up): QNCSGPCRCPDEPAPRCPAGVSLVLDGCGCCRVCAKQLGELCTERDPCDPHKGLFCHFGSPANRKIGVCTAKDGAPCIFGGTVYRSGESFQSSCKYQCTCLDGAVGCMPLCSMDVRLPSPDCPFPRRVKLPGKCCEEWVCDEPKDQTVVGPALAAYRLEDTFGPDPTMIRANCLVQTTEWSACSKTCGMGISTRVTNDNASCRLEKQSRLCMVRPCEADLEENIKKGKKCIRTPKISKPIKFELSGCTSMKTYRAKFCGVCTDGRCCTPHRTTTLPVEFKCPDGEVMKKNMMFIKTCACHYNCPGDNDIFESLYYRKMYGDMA

T2: huWISP-1 (human, UniProt O95388 23-367, limits assumed)
T2 construct: also called human WISP-1 (CCN4)
T2 sequence (looked up): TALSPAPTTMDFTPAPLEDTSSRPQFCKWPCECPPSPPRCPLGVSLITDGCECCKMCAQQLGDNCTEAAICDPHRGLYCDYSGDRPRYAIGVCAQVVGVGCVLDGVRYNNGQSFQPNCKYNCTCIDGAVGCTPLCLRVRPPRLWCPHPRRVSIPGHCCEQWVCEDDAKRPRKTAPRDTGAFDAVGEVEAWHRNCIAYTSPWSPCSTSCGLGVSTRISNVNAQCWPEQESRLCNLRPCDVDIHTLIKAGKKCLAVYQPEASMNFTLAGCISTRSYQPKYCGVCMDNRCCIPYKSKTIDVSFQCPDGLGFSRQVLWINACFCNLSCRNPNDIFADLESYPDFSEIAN

T3: huWISP-3 (human, UniProt O95389 24-354, limits assumed)
T3 construct: also called human WISP-3 (CCN6)
T3 sequence (looked up): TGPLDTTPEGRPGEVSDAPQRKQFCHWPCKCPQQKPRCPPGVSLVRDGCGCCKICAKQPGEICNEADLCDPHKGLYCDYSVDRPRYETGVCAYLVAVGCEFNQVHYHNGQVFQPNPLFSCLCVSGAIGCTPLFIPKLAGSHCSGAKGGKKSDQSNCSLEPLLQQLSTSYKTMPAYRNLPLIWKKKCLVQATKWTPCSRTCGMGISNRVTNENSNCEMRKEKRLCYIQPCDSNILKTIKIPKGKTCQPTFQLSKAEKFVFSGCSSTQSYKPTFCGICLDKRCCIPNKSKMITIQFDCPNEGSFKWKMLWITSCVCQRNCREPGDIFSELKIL

T4: huWISP-2 (human, UniProt O76076 24-250, limits assumed)
T4 construct: also called human WISP-2 (CCN5)
T4 sequence (looked up): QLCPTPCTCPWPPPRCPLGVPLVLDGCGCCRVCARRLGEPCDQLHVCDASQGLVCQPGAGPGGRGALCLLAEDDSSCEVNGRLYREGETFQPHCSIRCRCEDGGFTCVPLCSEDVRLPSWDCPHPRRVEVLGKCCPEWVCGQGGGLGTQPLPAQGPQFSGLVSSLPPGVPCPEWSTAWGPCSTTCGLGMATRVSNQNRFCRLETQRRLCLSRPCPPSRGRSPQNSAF

T5: huCYR61 (human, UniProt O00622 25-381, limits assumed)
T5 construct: also called human CYR61 (CCN1)
T5 sequence (looked up): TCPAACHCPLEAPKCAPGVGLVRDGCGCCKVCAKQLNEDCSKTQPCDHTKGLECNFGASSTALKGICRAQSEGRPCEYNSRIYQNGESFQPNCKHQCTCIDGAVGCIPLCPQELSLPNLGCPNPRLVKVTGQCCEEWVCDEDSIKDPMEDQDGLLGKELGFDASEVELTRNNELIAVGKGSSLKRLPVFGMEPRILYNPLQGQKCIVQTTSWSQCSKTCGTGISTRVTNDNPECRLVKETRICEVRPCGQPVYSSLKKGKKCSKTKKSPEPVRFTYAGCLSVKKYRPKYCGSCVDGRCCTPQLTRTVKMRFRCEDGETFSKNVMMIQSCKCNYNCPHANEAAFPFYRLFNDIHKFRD

T6: huNOV (human, UniProt P48745 32-357, limits assumed)
T6 construct: also called human NOV (CCN3)
T6 sequence (looked up): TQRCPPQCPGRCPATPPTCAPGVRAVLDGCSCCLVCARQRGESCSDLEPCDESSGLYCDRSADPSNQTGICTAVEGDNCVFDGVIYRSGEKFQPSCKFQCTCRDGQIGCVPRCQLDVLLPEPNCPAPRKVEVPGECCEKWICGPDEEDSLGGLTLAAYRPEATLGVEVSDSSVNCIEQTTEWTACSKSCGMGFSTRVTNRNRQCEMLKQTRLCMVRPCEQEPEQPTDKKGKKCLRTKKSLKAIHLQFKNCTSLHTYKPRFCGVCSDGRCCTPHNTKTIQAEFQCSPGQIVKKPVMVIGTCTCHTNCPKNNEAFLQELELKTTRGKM

T7: recombinant rat CTGF protein (R&D Systems) (rat, UniProt Q9R1E9 25-347)
T7 construct: Bought; also called rCTGF
T7 sequence: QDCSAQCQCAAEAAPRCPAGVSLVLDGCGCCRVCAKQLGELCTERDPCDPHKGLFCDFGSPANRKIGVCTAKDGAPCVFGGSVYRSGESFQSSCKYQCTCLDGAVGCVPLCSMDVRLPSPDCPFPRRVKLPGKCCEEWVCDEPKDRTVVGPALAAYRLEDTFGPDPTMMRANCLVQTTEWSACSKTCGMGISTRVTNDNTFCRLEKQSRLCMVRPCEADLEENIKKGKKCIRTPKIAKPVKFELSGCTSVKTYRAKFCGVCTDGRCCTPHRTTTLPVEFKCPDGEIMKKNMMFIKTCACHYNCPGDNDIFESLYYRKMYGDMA


What was measured:
[1] = target: T8, recombinant human CTGF-Fc protein (Creative Biomart) (human); experiment: SPR (Biacore)
T8 construct: Bought; also called human CTGF with a human IgG1 Fc Tag
Protocol: (§1) The binding of exemplary lipocalin muteins to human (Creative Biomart), cynomolgus, rat (R&D Systems) and mouse CTGF (Abbexa) was determined by SPR using a Biacore instrument (Cytiva, formerly GE Healthcare). Some targets were fused to a human IgG1 Fc tag, and captured via the anti-human IgG antibody kit, others were directly immobilized.
(§2) For some measurements, human CTGF with a human IgG1 Fc Tag or rat or murine CTGF without a tag were directly immobilized to a CM5 Chip. The carboxyl groups on the chip were activated using 1-ethyl-3-(3-dimethylaminopropyl)-carbodiimide (EDC) and N-hydroxysuccinimide (NHS). […] Residual non-reacted NHS-esters were blocked by passing a solution of 1 M ethanolamine across the surface. The reference channel was activated/deactivated. For the capture setting, targets with an IgG Fc Tag at 0.25-2.5 μg/mL in HBS-EP+ buffer were captured by the anti-human IgG-Fc antibody at the chip surface for 180 s at a flow rate of 10 μL/min.
(§3) The binding assay was carried out with a contact time of 180 s, a dissociation time of 900-3600 s and a flow rate of 30 μL/min. All measurements were performed at 25° C. […] For the directly immobilized targets, the same regeneration conditions were used. Prior to the protein measurements, three startup cycles were performed for conditioning purposes.

[2] = target: T1, CTGF expressed by TGF-β1-stimulated …; experiment: immunofluorescence staining of the lipocalin scaffold (AlexaFluor647 secondary antibody) on NHLFs incubated 24 h with the construct and 10 ng/ml TGF-β1; signal normalised to the NGAL control
Protocol: Binding of the CTGF-targeting lipocalin muteins and fusion proteins disclosed herein to CTGF-expressing, TGF-β1-stimulated normal human lung fibroblasts (NHLFs) was tested by incubating NHLFs for 24 h with constructs and 10 ng/ml TGF-β1, which induces CTGF expression. NHLFs without TGF-β1 stimulation were included as negative control. Constructs were detected with a secondary antibody against the lipocalin scaffold coupled to AlexaFluor647 after NHLFs were fixed in 4% PFA and blocked with 5% BSA. Images were acquired on the Cytation5 Reader (Biotek). Signals were quantified in Gene5 software and normalized to the respective controls.

huWISP-1 = target: T2, huWISP-1; experiment: ELISA, coated CCN protein
Protocol: (§4) Binding of muteins to closely related proteins of CTGF was tested by an ELISA assay. In detail, a 384-well plate suitable for fluorescence measurements (Greiner FLUOTRAC™ 600, black flat bottom, high-binding) was coated with 20 μl of human CTGF or the other members of the CCN protein family at a concentration of 1 μg/ml in PBS over night at 4° C. After washing with PBS with 0.05% Tween 20, wells were blocked with 100 μl blocking buffer containing 0.1% Tween 20 and 2% BSA (PBS-T/BSA) for 1 h at room temperature. 20 μl of serially diluted muteins starting at 1000 nM were incubated in PBS-T/BSA for 1 h at room temperature (RT).
(§5) The residual supernatants were discarded and 20 μl HRP-labeled anti-NGAL or anti-Strep-Tag antibody was added at a predetermined optimal concentration in PBS-T/BSA and incubated for 1 h at RT. After washing, 20 μl fluorogenic HRP substrate (QuantaBlu, Thermo) was added to each well, and the reaction was allowed to proceed for 2 to 60 minutes. The fluorescence intensity of every well on the plate was read using a fluorescence microplate reader (Tecan). When the signal for human CTGF approached saturation, the cross reactivity to the other proteins was assessed.

huWISP-3 = target: T3, huWISP-3; experiment: ELISA, coated CCN protein
Protocol: as §4, §5

huWISP-2 = target: T4, huWISP-2; experiment: ELISA, coated CCN protein
Protocol: as §4, §5

huCYR61 = target: T5, huCYR61; experiment: ELISA, coated CCN protein
Protocol: as §4, §5

huNOV = target: T6, huNOV; experiment: ELISA, coated CCN protein
Protocol: as §4, §5

[3] = target: T7, recombinant rat CTGF protein (R&D …); experiment: SPR (Biacore); B = binding without determination of kinetics constants
Protocol: as §1, §2, §3

T8 sequence (chain, as listed by the source limits assumed): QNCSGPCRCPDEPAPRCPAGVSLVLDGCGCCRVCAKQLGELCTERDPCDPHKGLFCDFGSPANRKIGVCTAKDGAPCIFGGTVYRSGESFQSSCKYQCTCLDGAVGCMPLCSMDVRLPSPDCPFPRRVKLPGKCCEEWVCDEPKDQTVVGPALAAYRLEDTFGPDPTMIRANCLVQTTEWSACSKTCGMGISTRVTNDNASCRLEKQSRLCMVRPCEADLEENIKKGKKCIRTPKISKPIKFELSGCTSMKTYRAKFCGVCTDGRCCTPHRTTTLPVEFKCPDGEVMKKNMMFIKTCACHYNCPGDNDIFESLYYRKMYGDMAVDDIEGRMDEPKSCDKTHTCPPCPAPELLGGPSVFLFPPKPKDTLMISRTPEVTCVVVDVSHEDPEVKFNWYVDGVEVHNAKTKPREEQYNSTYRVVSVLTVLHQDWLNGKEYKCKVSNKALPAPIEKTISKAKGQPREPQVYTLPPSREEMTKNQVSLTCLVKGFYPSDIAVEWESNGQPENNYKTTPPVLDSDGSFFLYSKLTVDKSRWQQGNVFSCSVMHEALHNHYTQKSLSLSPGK

| Kd [1] [nM] | koff [1] [s⁻¹] | kon [1] [M⁻¹ s⁻¹] | binding result [2] | binding result [3] | Binder | binding result (huWISP-1) | binding result (huWISP-3) | binding result (huWISP-2) | binding result (huCYR61) | binding result (huNOV) |
| --- | --- | --- | --- | --- | --- | --- | --- | --- | --- | --- |
| 0.077 | 9.42e-06 | 122000 | binds | – | lipocalin mutein of SEQ ID NO: 23 (designed binder, also called hNGAL mutein) QDSTSDLIPAPPLSKVPLQQNFQDNQFQGKWYVVGVAGNAILRPDKQPAKMFATIYELKEDKSYDVTSVRFEAKSCKYTIKTFVPGSQPGEFTSGQIKSAPGQTSTLVRVVSTNYNQHAMVFFKHVSQNREIFVITLYGRTKELTSELKENFIRFSKSLGLPENHIVFPVPIDQCIDG | no binding (tested: dilutions starting at 1000 nM) | no binding (tested: dilutions starting at 1000 nM) | no binding (tested: dilutions starting at 1000 nM) | no binding (tested: dilutions starting at 1000 nM) | no binding (tested: dilutions starting at 1000 nM) |
| 0.514 | 0.000149 | 290000 | – | binds | lipocalin mutein of SEQ ID NO: 6 (designed binder, also called hNGAL mutein; not shown: C-terminal His-tag) QDSTSDLIPAPPLSKVPLQQNFQDNQFQGKWYVVGRAGNNQLREDKSPPKMWATIYELKEDKSYDVTHVHFSTKKCRYIIDTFVPGSQPGEFTAGAIKSGPGLTSPLVRVVSTNYNQHAMVFFKWVTQNREWFTITLYGRTKELTSELKENFIRFSKSLGLPENHIVFPVPIDQCIDG | – | – | – | – | – |
